The text below walks through data of article PMC6677171, “Subunit interactions and arrangements in the fission yeast Mis16–Mis18–Mis19 complex” (Life Science Alliance, 2019).

What is called Kd is the free concentration of one partner at which half of the binding sites on the other are occupied at equilibrium, for simple one-to-one binding. Low readings indicate a tighter complex, high ones a looser complex.

The assay deals with Mis16 (S. pombe), full length, affinity tag removed (S. pombe), O94244. The assay is described as follows: ITC; iTC200, 30°C; 50 mM Tris pH 7.5, 100 mM NaCl, 4% glycerol, 0.5 TCEP; 26 μM protein in the cell, 260 μM peptide injected.
Chain of Mis16 (S. pombe), full length, affinity tag removed (S. pombe), O94244 (O94244 whole entry): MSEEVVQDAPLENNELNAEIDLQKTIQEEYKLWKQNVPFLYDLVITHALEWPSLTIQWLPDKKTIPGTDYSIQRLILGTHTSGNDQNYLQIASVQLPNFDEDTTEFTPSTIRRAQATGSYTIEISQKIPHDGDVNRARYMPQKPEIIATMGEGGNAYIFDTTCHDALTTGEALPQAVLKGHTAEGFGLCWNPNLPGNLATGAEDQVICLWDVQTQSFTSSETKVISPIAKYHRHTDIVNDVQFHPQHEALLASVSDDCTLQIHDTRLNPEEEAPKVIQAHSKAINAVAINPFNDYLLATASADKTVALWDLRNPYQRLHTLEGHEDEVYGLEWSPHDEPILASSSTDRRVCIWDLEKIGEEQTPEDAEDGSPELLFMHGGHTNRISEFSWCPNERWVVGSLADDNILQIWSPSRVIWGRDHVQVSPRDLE

As to LHNRAFLRRNVRAVKM (modifications not checked) [Mis19 C-terminal peptide (residues 97–112) with V101 mutated, O42995 97-112], the Kd was 51 nM.
